In the supplement of paper PMC12042874 one finds amyloid nucleation score data, which are given here for 143 substances.

± gives the uncertainty stated by the source.

This series is described as follows: amyloid nucleation score (Sup35N fusion, yeast selection) (log enrichment); library NNK1; higher = more nucleation; inactive = no reads after selection. In a few lines:
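After 24 hours of induction with 100 μM copper sulfate, psi-negative yeast expressing peptides of 20 random codons fused to Sup35N were grown for 7 days at 30°C on medium lacking adenine and uracil. Input and output plasmid inserts were sequenced with Illumina, and sequences with under 100 input reads were discarded. Scores for nucleation are the DiMSum log enrichment of output over input reads, centred on the mode score of non-aggregating sequences.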
As for PTCQGITWMPRQLWLMGGAD, the amyloid nucleation score was 0.507 ± 0.6.
On to PTFNSAQTRSISYIKTDYLE, for which the amyloid nucleation score entry was “inactive”.
PTLMLAGG showed an amyloid nucleation score of -0.33 ± 0.46.
Substance PTMSLIDGIVGKLMDSRVGT had an amyloid nucleation score of -0.11 ± 0.32.
As to PTTEWKVVRT, the amyloid nucleation score was 0.808 ± 0.57.
Regarding PTTYNYSCVGIVSFDFSESI, the amyloid nucleation score was 5.293 ± 0.052.
In the case of PVCVIRRGMAFSAFGWVPLE it was 0.188 ± 0.7; in that of PVFGETGDY, -0.393 ± 0.4.
Regarding PVGGHMVRLSSMSNSLAFKV, the amyloid nucleation score was -0.563 ± 0.68.
Take PVKNRYTHR: the amyloid nucleation score result was “inactive”.
To PVLRAWYGRLFCRYSWLWQC belongs 0.274 ± 0.46; to PVSSLNYLVDT, 0.395 ± 0.62; to PWCSKQEGTRMWGMYGAPGG, 0.162 ± 0.62.
For the substance PWGTCQQYRYTFWPVSAC, the amyloid nucleation score was -0.412 ± 0.92.
With PWTYQHGQLASWVLGES, the amyloid nucleation score was -0.242 ± 0.33.
Substance PYRFSYKVVESSICDNLRRR gave an amyloid nucleation score of -0.094 ± 0.35.
Regarding PYRPLSGRHRVLTQYGKLVG, the amyloid nucleation score turned out to be 0.112 ± 0.81.
Consider PYSQFANLSIYVMDMMRGIR, for which the amyloid nucleation score turned out to be 5.562 ± 0.048.
PYWTVYGELL returned an amyloid nucleation score of 0.116 ± 0.97.
QAELYPDQNRGCVGLVVPAD had an amyloid nucleation score of -0.544 ± 0.54.
For the substance QAFSNESVTRDLLCG, the amyloid nucleation score was -0.957 ± 0.64.
In the case of QATYCGLIIPSGLIYPDYTV it was -0.442 ± 0.54.
QAVGSI displayed an amyloid nucleation score of 0.031 ± 0.33.
In the case of QCSCSKWLAIRDWDGSSKMK it was 0.082 ± 1.6; in that of QDITPYWIVIGYD, -0.367 ± 0.29; in that of QDLPAISLFTDVQSKPRTFP, 0.631 ± 0.95.
Take QDRNVSWLYIGSVTGRRVAG: the amyloid nucleation score was 0.488 ± 0.66.
In the case of QEYRDMILKPFHRWFTMFK, the amyloid nucleation score turned out to be 0.941 ± 0.44.
The substance QFAHKVYPMSSCLVNVA displayed an amyloid nucleation score of -0.678 ± 0.57.
Turning to QFIRILDQSKILYLCCFLDT, the amyloid nucleation score was 5.64 ± 0.061.
Take QFKKVGPPLVKNLAQVRMRM: the amyloid nucleation score is -0.033 ± 0.47.
QFMMS: the amyloid nucleation score was 0.052 ± 0.29.
In the case of QFSAIIMSLSLLWSFMCAWE it was -0.217 ± 0.55; in that of QGCIVQGAASEIEANLAQLS, 1.08 ± 0.59; in that of QGKLFFLVNLYSKPQNSHYG, 4.13 ± 0.069.
QGSSSGITQFGMPTYLGIIC returned an amyloid nucleation score of 0.61 ± 0.47.
For the substance QGVGSDVTSIYTV, the amyloid nucleation score is -0.884 ± 2.4.
In the case of QGWKGSC, the amyloid nucleation score was -0.385 ± 1.4.
To QHEDISPPKLPIVNSAIPFV belongs 0.335 ± 0.54; to QHIPGDCFYHCCQFHCAQKE, 0.818 ± 0.77.
To QHRVCLHCYKM belongs -1.63 ± 2.7; to QIFLWFGISNKDFLHFVSWS, 0.158 ± 0.57.
Regarding QIHFFAFRFIGMVYFPRIGD, the amyloid nucleation score worked out at 0.318 ± 0.79.
To QIIHGCSAGLQLT belongs 0.809 ± 0.47; to QISVKTMLLSLTFRMFIYWN, -0.168 ± 0.38; to QKCIVLVMLLGWVFGMPVIG, 0.129 ± 0.65.
In the case of QKTASILLPVRYFWCEKSWM it was -0.667 ± 1.5; in that of QLDINN, 0.197 ± 0.52; in that of QLGWYLFGM, 0.729 ± 0.4.
To QLIHMMFYIRFMWDLGHRSL belongs 0.814 ± 0.36.
As to QLSYLTFFCFVP, the amyloid nucleation score came out at 7.183 ± 0.052.
To QLTLSNWLKTSAKA belongs 2.5 ± 0.32; to QLTSVSIFWYPF, -1.46 ± 2.4.
The substance QMRSVYVQDTINMALIIHEL came in with an amyloid nucleation score of 0.617 ± 0.27.
In the case of QMTKNYEWDSTRIACVGLHR, the amyloid nucleation score came to 2.68 ± 0.11.
QMVGESDECRCSLYSGQWKG yielded an amyloid nucleation score of -0.186 ± 0.42.
Turning to QNDVSGKLGNKLSSVCSLRR, the amyloid nucleation score is 0.405 ± 0.95.
As to QNFSRTGGIGIHKIFVGMGE, the amyloid nucleation score is -1.13 ± 1.4.
In turn, QNPNVDERNSTS had an amyloid nucleation score of 0.69 ± 0.52.
Take QPNSWELWPCSDLRIRLVEE: the amyloid nucleation score was 0.104 ± 0.34.
As to QQLYINC, the amyloid nucleation score worked out at 0.199 ± 0.47.
To QRIGHLVLDSVGRTSCVMGA belongs 0.386 ± 0.41; to QRLFRYNPTKSRGLCNNTWA, 0.59 ± 0.22; to QRMLDTLH, -0.134 ± 1.7.
In the case of QRQNVYVGGYIANMVHGSGC it was 1.27 ± 0.58; in that of QRRALHTL, -0.069 ± 0.46.
To QRSRHSIFQGILRGSNSSWD belongs 1.12 ± 0.69; to QSDKCCLMYGECVHVVC, 2.83 ± 0.069; to QSNSTYYGGSSRSGEKFPLG, 3.83 ± 0.083.
QSRSL came in with an amyloid nucleation score of 0.703 ± 0.66.
Consider QTLCCETRWSGENRSDAFRV, for which the amyloid nucleation score is -0.596 ± 0.79.
With QTSSFFCSV, the amyloid nucleation score is -2.12 ± 2.4.
In the case of QVLDTGVVTDWSVIPFGRSY it was 0.483 ± 0.65; in that of QVNDIGP, -0.341 ± 0.22.
In turn, QVTTSPQ gave an amyloid nucleation score of -0.387 ± 0.56.
Turning to QVVRIYQVQGLWIMVHR, the amyloid nucleation score came to 1.96 ± 0.28.
To QVWITWVGRKLPHRGKTVGN belongs -0.379 ± 0.53.
With QWCDKVFL, the amyloid nucleation score was -0.687 ± 0.4.
QWCNIVGSMIVDITQELML gave an amyloid nucleation score of 1.75 ± 0.25.
In the case of QWLAVVVIKVGLTWQYRFGG, the amyloid nucleation score was 0.198 ± 0.91.
QYFKPGVASPSGDPVFKKKV displayed an amyloid nucleation score of -0.404 ± 0.43.
To QYLFIYFLALS belongs -1.27 ± 0.53; to QYVPNTLDNSPDAVGMSNIY, -0.29 ± 1.7; to RADWYASAGKRCGHLQG, -0.148 ± 0.3.
Substance RALGIDIRIFMVDDNSAFSI registered an amyloid nucleation score of 0.347 ± 1.1.
In the case of RALSVRSRQLG, the amyloid nucleation score turned out to be 0.135 ± 0.97.
The substance RALVDRLSTS showed an amyloid nucleation score of 0.472 ± 0.82.
For RAPLLMSVTLLRHQFCTRME, the amyloid nucleation score was 1.8 ± 0.21.
In the case of RARTKAWWMDWSGYRRGGHL it was 0.118 ± 0.58; in that of RAVGDM, -0.241 ± 0.52.
RCEVESIRNGLAKAGSVTMR displayed an amyloid nucleation score of 0.515 ± 0.38.
With RCGGM, the amyloid nucleation score is -0.381 ± 0.64.
RCIPLNNNFYASKQLLMSME displayed an amyloid nucleation score of 0.259 ± 0.62.
For RCLMPYNYE, the amyloid nucleation score was 0.952 ± 0.49.
In the case of RCNSDESYL it was 0.078 ± 0.42; in that of RCRYVRLETSLC, -0.083 ± 0.47; in that of RCRYYCNR, -0.152 ± 0.48.
On to RCSTPRCSPL, for which the amyloid nucleation score is -0.237 ± 0.62.
Substance RCWGRAYMYRPCCISV yielded an amyloid nucleation score of -1.06 ± 0.8.
In turn, RCYIDYSVEFRLHMIKMKTR registered an amyloid nucleation score of -0.227 ± 0.65.
Consider RDAIYYKICLAQPRSF, for which the amyloid nucleation score is -0.465 ± 0.38.
Substance RDCPGL showed an amyloid nucleation score of -0.95 ± 2.7.
Regarding RDHMAYYMSVVGSSKNPLRR, the amyloid nucleation score result was “inactive”.
For RDSHSLMVVGFRYELSQGLK, the amyloid nucleation score came to 0.496 ± 1.1.
Substance RDSNVGIFHNSR had an amyloid nucleation score of -1.35 ± 0.87.
In turn, RDYFTN displayed an amyloid nucleation score of 0.789 ± 0.9.
In turn, REDWSTLEPYPHYDTAIGRS came in with an amyloid nucleation score of 1.24 ± 0.8.
To REEYYGIPSEINGHTTLVYS belongs 1.03 ± 0.72; to REFGLLAWVELLFWATFR, -0.676 ± 0.94.
To REGATIPWFRCNRLE belongs -0.167 ± 0.33; to REIIGRLLSVRTSLAEYNSG, -0.514 ± 0.91.
In turn, RFCGVMESERTVIRKCREVG came in with an amyloid nucleation score of 0.095 ± 0.42.
To RFCISNARRRFLRPFGSYL belongs 0.072 ± 1.1; to RFCRSIAFA, 0.237 ± 0.32.
Take RFEGERRVVG: the amyloid nucleation score is -0.035 ± 0.3.
To RFEMNCWSC belongs -0.802 ± 0.39; to RFFCDCFFGSRGE, 1.88 ± 0.36; to RFFCSD, 0.641 ± 0.97.
In the case of RFFRISWIFMSDSRPTRSDF, the amyloid nucleation score is 0.793 ± 0.84.
The substance RFGYFFHLVGAGEGHGKGAC had an amyloid nucleation score of 0.686 ± 0.59.
To RFNSYEVVIRVWRDSMISEG belongs 1.09 ± 0.78; to RFNWSSDLCSFKTPLSKHVG, 0.258 ± 0.41.
In the case of RFRYDTVMMNMFLNRVSFGG it was 1.38 ± 0.4; in that of RFSWPWTDYNMKNYA, -0.119 ± 0.21; in that of RFTGQWWYVFSLWAILSRIK, 0.357 ± 0.55.
On to RFVLVMYMESLKMHCSLTYT, for which the amyloid nucleation score is -0.381 ± 0.27.
For the substance RFVNKGGT, the amyloid nucleation score was -0.325 ± 0.69.
To RFYMWYLVLEVLEIGKLADP belongs -1.04 ± 2.7; to RGDAIMAWGSVVRYIHYILY, 1.51 ± 0.5.
RGDLSYYCRSNN showed an amyloid nucleation score of -0.5 ± 1.4.
RGFADLCAFEDMCIRFDESL: the amyloid nucleation score was 0.878 ± 0.64.
To RGFCTGNDVF belongs “inactive”.
RGGKGPRFVYNRFISRAAGR displayed an amyloid nucleation score of -0.869 ± 0.74.
In turn, RGGRWLMATWMMPGNGCLAA came in with an amyloid nucleation score of 0.708 ± 0.52.
As for RGICWWLNIHWGKAMDMLGP, the amyloid nucleation score came out at 0.428 ± 0.97.
RGLYFNALSR registered an amyloid nucleation score of -0.167 ± 0.43.
As to RGNRHTSGNVTL, the amyloid nucleation score was found to be 0.045 ± 0.35.
Take RGNSFIRRY: the amyloid nucleation score was found to be 0.285 ± 0.47.
RGPLDP yielded an amyloid nucleation score of 0.361 ± 0.45.
In turn, RGRVSNY returned an amyloid nucleation score of -0.455 ± 1.4.
In the case of RGSIRIKDMTCGLEIGIALR it was -0.001 ± 0.44.
In turn, RGSQGLVNLYIAFPMECLGI returned an amyloid nucleation score of 3.73 ± 0.087.
To RHAKRLWRV belongs -0.574 ± 0.78.
